Results taken from the emibetuzumab library of Makowski et al. (2022).

B1: VH:VL chains; a variant is named by its letters at X, in order (parent)
chain 1: QVQLVQSGAEVKKPGASVKVSCKASGYTFTDYXMHWVRQAPGQGLEWMGXVNPNXXXTTYNQKFEGRVTMTTDTSTSTAYMELRSLRSDDTAVYYCARXNXLDXWGQGTTVTVSS
chain 2: DIQMTQSPSSLSASVGDRVTITCSVSSSVSSIYLHWYQQKPGKAPKLLIYSTSNLASGVPSRFSGSGSGTDFTLTISSLQPEDFATYYCQVYSGYPLTFGGGTKVEIK

Variants of: B1
Experiment: yeast display scFab, FACS + sequencing
Procedure, shortened: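 Heavy-chain CDR mutant scFab yeast surface library, FACS-sorted after labelling with biotinylated ovalbumin (260 μg/mL in PBSB, 3 h, room temperature) or soluble membrane proteins (130 μg/mL, 20 min on ice), plus anti-Myc. Gates collected the top 25% and bottom 10% of binders, and samples from two replicates were deep sequenced. Non-specific binding call: a sequence was positive if found in ≥3 of 4 positive samples (membrane protein and ovalbumin pooled) and no negatives, and negative by the converse rule.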

Variant	non-specific binding call
VEGGGYSV	no binding
VEGGNDGA	no binding
SEGGSAAY	no binding
DEGGTAAA	no binding
DEGGTAGA	no binding
VEGGTAGS	no binding
DEGGTAGV	no binding
DEGGTALA	no binding
DEGGTAVA	no binding
DEGGTAVV	no binding
DEGGTDAA	no binding
DEGGTDAV	no binding
YEGGTDGA	no binding
DEGGTDGS	no binding
DEGGTDGV	no binding
DEGGTDGY	no binding
DEGGTDLD	no binding
DEGGTDSA	no binding
DEGGTDSF	no binding
VEGGTDVA	no binding
DEGGTDVA	no binding
DEGGTDVD	no binding

Variant	non-specific binding call
DEGGTDVF	no binding
YEGGTDVV	no binding
VEGGTDVV	no binding
SEGGTDVV	no binding
AEGGTDVV	no binding
FEGGTDVV	no binding
DEGGTDVY	no binding
DEGGTDWD	no binding
DEGGTDWV	no binding
DEGGTDWY	no binding
DEGGTSAD	no binding
YEGGTSGA	no binding
DEGGTSGV	no binding
DEGGTSLD	no binding
DEGGTSSA	no binding
DEGGTSVD	no binding
DEGKAAGS	no binding
DEGKDDVA	no binding
VEGKGAGD	no binding
DEGKGFGS	binds
SEGRGAAA	no binding
AEGRGAVY	no binding

Variant	non-specific binding call
VEGRGAVY	no binding
SEGRGAWY	no binding
SEGRGDAA	no binding
VEGRGDAV	no binding
SEGRGDGA	no binding
VEGRGDGA	no binding
DEGRGDGV	no binding
VEGRGDGY	no binding
YEGRGDVA	no binding
VEGRGDVF	no binding
SEGRGDVY	no binding
DEGRGDWY	no binding
SEGRGSGV	no binding
DEGRGSWA	no binding
YEGRNVGV	binds
DEGRSVAA	binds
DEGTDYAA	binds
YEGTGAGA	no binding
VEGTGAGD	no binding
SEGTGAGV	no binding
DEGTGALA	no binding
DEGTGAVA	no binding

Variant	non-specific binding call
YEGTGAVF	no binding
YEGTGDVV	no binding
VEGTGDWD	no binding
SEGTGDWV	no binding
YEGTGSAD	no binding
YEGTGSGD	no binding
SEGTGSGD	no binding
YEGTGSLS	no binding
SEGTGSSV	no binding
YEGTGSWA	no binding
VEGTGVGD	binds
AEGTNAGD	no binding
VEGTNDVV	no binding
VEGTSAAY	no binding
VEGTSAGD	no binding
VEGTSASV	no binding
VEGTSAVF	no binding
AEGTSAVF	no binding
SEGTSAVF	no binding
VEGTSAVY	no binding
VEGTSDGD	no binding
VEGTSDLS	no binding

Variant	non-specific binding call
VEGTSDVV	no binding
VEGTSSGD	no binding
VEGTSSLD	no binding
VEGTSSSV	no binding
FEKEADAF	binds
YEKEDYLA chain 1 G108D	no binding
VEKEGAGD	no binding
DEKEGDAA	no binding
FEKEGDAA	no binding
SEKEGDAA	no binding
VEKEGDAD	no binding
VEKEGDGA	no binding
VEKEGDGS	no binding
VEKEGDGV	no binding
VEKEGDVY	no binding
VEKEGDWY	no binding
YEKETAGV	binds
YEKETVVA	binds
YEKGGAGD	no binding
YEKGGAWS	binds
VEKGGDAA	no binding
